The test addresses T1, human Melanoma-associated Chondroitin Sulfate Proteoglycan (MCSP) (human, UniProt Q6UVK1 30-2322).
T1 construct: whole, on cells; also called CSPG4; NG2
As to the kind of experiment: flow cytometry on B16F10-MCSP (C25) cells, detected with Strep-PE or fold-specific anti-H-2K antibody. On the technique in general: In flow cytometry, cells or beads pass a laser one at a time.

T1 sequence (Q6UVK1 30-2322): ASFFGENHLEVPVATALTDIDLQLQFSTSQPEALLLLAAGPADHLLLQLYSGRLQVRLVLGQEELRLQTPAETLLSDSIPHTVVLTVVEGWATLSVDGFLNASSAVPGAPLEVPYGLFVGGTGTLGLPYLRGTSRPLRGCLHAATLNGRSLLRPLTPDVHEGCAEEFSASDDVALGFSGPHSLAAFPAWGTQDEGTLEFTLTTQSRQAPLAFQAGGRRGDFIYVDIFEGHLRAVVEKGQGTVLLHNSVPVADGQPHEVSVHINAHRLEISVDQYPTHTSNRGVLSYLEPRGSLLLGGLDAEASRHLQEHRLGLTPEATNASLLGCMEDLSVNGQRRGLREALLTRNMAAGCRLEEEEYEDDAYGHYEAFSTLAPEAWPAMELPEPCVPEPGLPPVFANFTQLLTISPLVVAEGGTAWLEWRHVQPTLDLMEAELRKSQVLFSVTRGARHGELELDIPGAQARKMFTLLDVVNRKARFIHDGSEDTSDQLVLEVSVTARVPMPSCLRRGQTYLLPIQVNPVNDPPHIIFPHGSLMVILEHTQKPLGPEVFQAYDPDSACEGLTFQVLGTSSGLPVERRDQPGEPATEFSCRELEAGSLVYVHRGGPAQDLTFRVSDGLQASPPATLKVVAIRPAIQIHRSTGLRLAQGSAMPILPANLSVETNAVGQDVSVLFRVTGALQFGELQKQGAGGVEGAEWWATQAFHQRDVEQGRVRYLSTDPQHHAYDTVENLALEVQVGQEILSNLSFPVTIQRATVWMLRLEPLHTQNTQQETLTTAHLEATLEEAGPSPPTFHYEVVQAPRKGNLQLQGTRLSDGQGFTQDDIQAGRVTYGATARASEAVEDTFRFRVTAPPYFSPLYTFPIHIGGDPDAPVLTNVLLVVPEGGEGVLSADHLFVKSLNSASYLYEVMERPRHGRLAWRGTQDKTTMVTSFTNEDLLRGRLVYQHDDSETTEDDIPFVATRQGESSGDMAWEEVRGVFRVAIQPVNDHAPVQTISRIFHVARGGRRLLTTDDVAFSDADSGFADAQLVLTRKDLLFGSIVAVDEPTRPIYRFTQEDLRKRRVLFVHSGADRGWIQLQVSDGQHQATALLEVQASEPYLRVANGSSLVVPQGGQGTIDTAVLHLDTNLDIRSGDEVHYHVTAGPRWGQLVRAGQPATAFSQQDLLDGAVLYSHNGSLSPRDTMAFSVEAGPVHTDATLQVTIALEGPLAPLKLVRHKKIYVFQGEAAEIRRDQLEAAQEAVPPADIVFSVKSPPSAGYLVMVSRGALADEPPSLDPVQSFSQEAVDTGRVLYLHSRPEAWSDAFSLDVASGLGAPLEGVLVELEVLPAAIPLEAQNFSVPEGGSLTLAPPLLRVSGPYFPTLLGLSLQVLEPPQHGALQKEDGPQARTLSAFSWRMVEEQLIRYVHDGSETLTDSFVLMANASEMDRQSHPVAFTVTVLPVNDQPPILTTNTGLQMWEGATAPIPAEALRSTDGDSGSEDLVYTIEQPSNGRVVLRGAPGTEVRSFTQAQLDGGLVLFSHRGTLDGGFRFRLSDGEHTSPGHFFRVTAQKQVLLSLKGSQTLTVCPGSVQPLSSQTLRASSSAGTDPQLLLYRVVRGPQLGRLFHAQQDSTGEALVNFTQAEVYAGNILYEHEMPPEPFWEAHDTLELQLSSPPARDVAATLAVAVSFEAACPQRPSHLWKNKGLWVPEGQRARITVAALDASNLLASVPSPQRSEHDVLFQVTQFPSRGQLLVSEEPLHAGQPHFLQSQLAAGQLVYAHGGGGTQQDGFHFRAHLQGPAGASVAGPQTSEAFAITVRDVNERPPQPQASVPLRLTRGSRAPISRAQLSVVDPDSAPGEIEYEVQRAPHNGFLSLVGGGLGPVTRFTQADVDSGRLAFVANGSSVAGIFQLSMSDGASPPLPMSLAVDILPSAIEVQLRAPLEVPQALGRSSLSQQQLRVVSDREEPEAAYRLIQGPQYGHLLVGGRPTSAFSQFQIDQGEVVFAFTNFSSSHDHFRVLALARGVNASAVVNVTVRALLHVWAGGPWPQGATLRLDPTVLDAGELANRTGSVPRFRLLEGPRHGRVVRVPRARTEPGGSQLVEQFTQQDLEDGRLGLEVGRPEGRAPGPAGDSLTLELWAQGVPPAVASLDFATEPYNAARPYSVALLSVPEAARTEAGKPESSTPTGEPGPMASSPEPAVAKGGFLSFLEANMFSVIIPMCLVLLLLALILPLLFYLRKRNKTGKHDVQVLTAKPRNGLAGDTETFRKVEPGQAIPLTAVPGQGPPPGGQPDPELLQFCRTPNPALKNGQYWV

B1: BA5 biotinylated peptide-H-2Kb-anti-MCSP scFv fusion protein, 20 amino acid β2M-MHC linker (peptide-MHC)
chain: RTYTYEKLGGGGSGGGGSGGGGSIQKTPQIQVYSRHPPENGKPNILNCYVTQFHPPHIEIQMLKNGKKIPKVEMSDMSFSKDWSFYILAHTEFTPTETDTYACRVKHVSMAEPKTVYWDRDMGGGGSGGGGSGGGGSGGGGSGPHSLRYFVTAVSRPGLGEPRYMEVGYVDDTEFVRFDSDAENPRYEPRARWMEQEGPEYWERETQKAKGNEQSFRVDLRTLLGYYNQSKGGSHTIQVISGCEVGSDGRLLRGYQQYAYDGCDYIALNEDLKTWTAADMAALITKHKWEQAGEAERLRAYLEGTCVEWLRRYLKNGNATLLRTDSPKAHVTHHSRPEDKVTLRCWALGFYPADITLTWQLNGEELIQDMELVETRPAGDGTFQKWASVVVPLGKEQYYTCHVYHQGLPEPLTLRWEPPPSTASGGQVKLQQSGGGLVQPGGSMKLSCVVSGFTFSNYWMNWVRQSPEKGLEWIAEIRLKSNNFGRYYAESVKGRFTISRDDSKSSAYLQMINLRAEDTGIYYCTSYGNYVGHYFDHWGQGTTVTVSSGGGGSGGGGSGGGGSDIELTQSPKFMSTSVGDRVSVTCKASQNVDTNVAWYQQKPGQSPEPLLFSASYRYTGVPDRFTGSGSGTDFTLTISNVQSEDLAEYFCQQYNSYPLTFGGGTKLEIKRAHHHHHHGLNDIFEAQKIEWH
notes: also called BA-biotin fusion molecule; biotinylated ScFv-MHC molecule
Regarding B1, the binding result is listed as “binds”.
